Data as given in patent publication US20180326082A1 (Sanofi, published 2018).

B1: 40 kD N-terminal mono-PEGylated rhTSH (ligand)
chain 1: not shown
chain 2: FCIPTEYTMHIERRECAYCLTINTTICAGYCMTRDINGKLFLPKYALSQDVCTYRDFIYRTVEIPGCPLHVAPYFSYPVALSCKCGKCNTDYSDCIHEAIKTNYCTKPQKSY
modifications: see alpha chain; one 40 kD aldehyde PEG per protein at an N-terminus (reductive amination); which subunit is not stated
B2: 40 kD Lysine mono-PEGylated rhTSH (ligand)
chain 1: not shown
chain 2: B1 chain 2
modifications: see alpha chain; one 40 kDa NHS PEG per protein on a lysine; which lysine and subunit are not stated
notes: SEC fraction of the mono-PEGylated species; also called mono-40 kDa NHS PEG-TSH (Lysine PEGylation)
B3: recombinant human TSH (rhTSH), THYROGEN Thyroid Stimulating Hormone (ligand)
chain 1: not shown
chain 2: B1 chain 2
modifications: N-linked carbohydrate chain at ASN23; N-linked carbohydrate chains at ASN52 and ASN78
notes: Heterodimer of alpha and beta subunit; also called TSH control; control TSH, starting material
B4: 40 kD 4-arm PEG G22C rhTSH (ligand)
chain 1: not shown
chain 2: B1 chain 2
modifications: 40 kD 4-arm cysteine-reactive PEG on Cys22
B5: 40 kD 2-arm PEG G22C rhTSH (ligand)
chain 1: not shown
chain 2: B1 chain 2
modifications: 40 kD 2-arm cysteine-reactive PEG on Cys22
B6: 60 kD 2-arm PEG G22C rhTSH (ligand)
chain 1: not shown
chain 2: B1 chain 2
modifications: 60 kD 2-arm cysteine-reactive PEG on Cys22
B7: G22C rhTSH (ligand)
chain 1: not shown
chain 2: B1 chain 2
modifications: introduced cysteine found capped after expression and purification
notes: Cysteine mutant without PEG, produced from CHO cells; also called TSH G22C(alpha); G22C(a)
B8: 50 kD 3-arm PEG G22C rhTSH (ligand)
chain 1: not shown
chain 2: B1 chain 2
modifications: 50 kD 3-arm cysteine-reactive PEG on Cys22
B9: 60 kD 4-arm PEG G22C rhTSH (ligand)
chain 1: not shown
chain 2: B1 chain 2
modifications: 60 kD 4-arm cysteine-reactive PEG on Cys22
B10: 40 kD linear PEG G22C rhTSH (ligand)
chain 1: not shown
chain 2: B1 chain 2
modifications: 40 kD linear cysteine-reactive PEG on Cys22
notes: also called 40 kD linear G22C; 40 kD G22C
B11: 40 kD monoSAM PEGylated rhTSH (ligand)
chain 1: not shown
chain 2: B1 chain 2
modifications: see alpha chain; glycan at ASN23 is a possible PEG site; one 40 kD aminoxy PEG per protein on periodate-oxidized sialic acid of an N-linked glycan (ASN52 or ASN78 of alpha, or ASN23 of beta); 58% of the conjugate modified on the alpha subunit
notes: Sialic acid-mediated (SAM) monoPEGylation of rhTSH; also called 40 kD SAM; mono-40 kDa aminoxy PEG-TSH (SAM PEGylation)
B12: 40 kD GAM- PEGylated rhTSH (ligand)
chain 1: not shown
chain 2: B1 chain 2
modifications: see alpha chain; glycan at ASN23 is a possible PEG site; one 40 kD aminoxy PEG per protein on galactose oxidase-oxidized galactose of an N-linked glycan (ASN52 or ASN78 of alpha, or ASN23 of beta); 77% of the conjugate modified on the alpha subunit
B13: 40 kD GAM+ PEGylated rhTSH (ligand)
chain 1: not shown
chain 2: B1 chain 2
modifications: see alpha chain; glycan at ASN23 is a possible PEG site; sialic acid removed with neuraminidase; one 40 kD aminoxy PEG per protein on galactose oxidase-oxidized galactose of an N-linked glycan (ASN52 or ASN78 of alpha, or ASN23 of beta); 66% of the conjugate modified on the alpha subunit
B14: 20 kD GAM- PEGylated rhTSH (ligand)
chain 1: not shown
chain 2: B1 chain 2
modifications: see alpha chain; glycan at ASN23 is a possible PEG site; one 20 kD aminoxy PEG per protein on galactose oxidase-oxidized galactose of an N-linked glycan (ASN52 or ASN78 of alpha, or ASN23 of beta)
B15: 10 kD multiSAM PEGylated rhTSH (ligand)
chain 1: not shown
chain 2: B1 chain 2
modifications: see alpha chain; glycan at ASN23 is a possible PEG site; more than one 10 kD aminoxy PEG per protein on periodate-oxidized sialic acid of the N-linked glycans (ASN52, ASN78 of alpha; ASN23 of beta); split between sites not stated
B16: 20 kD monoSAM PEGylated rhTSH (ligand)
chain 1: not shown
chain 2: B1 chain 2
modifications: see alpha chain; glycan at ASN23 is a possible PEG site; one 20 kD aminoxy PEG per protein on periodate-oxidized sialic acid of an N-linked glycan (ASN52 or ASN78 of alpha, or ASN23 of beta)
notes: Sialic acid-mediated (SAM) monoPEGylation of rhTSH; also called 20 kD SAM
B17: 10 kD monoSAM PEGylated rhTSH (ligand)
chain 1: not shown
chain 2: B1 chain 2
modifications: see alpha chain; glycan at ASN23 is a possible PEG site; one 10 kD aminoxy PEG per protein on periodate-oxidized sialic acid of an N-linked glycan (ASN52 or ASN78 of alpha, or ASN23 of beta)
notes: Sialic acid-mediated (SAM) monoPEGylation of rhTSH; also called 10 kD SAM
B18: 20 kD GAM+ PEGylated rhTSH (ligand)
chain 1: not shown
chain 2: B1 chain 2
modifications: see alpha chain; glycan at ASN23 is a possible PEG site; sialic acid removed with neuraminidase; one 20 kD aminoxy PEG per protein on galactose oxidase-oxidized galactose of an N-linked glycan (ASN52 or ASN78 of alpha, or ASN23 of beta)

What follows are binders tested against T1, porcine TSH receptor (porcine, UniProt Q8SPP9 22-764, limits assumed) (assay: in vitro TSH receptor binding assay (competition ELISA)).
T1 construct: Bought, coated on kit plates; the construct is not described; also called immobilized porcine TSH receptor
T1 sequence (Q8SPP9 22-764 limits assumed): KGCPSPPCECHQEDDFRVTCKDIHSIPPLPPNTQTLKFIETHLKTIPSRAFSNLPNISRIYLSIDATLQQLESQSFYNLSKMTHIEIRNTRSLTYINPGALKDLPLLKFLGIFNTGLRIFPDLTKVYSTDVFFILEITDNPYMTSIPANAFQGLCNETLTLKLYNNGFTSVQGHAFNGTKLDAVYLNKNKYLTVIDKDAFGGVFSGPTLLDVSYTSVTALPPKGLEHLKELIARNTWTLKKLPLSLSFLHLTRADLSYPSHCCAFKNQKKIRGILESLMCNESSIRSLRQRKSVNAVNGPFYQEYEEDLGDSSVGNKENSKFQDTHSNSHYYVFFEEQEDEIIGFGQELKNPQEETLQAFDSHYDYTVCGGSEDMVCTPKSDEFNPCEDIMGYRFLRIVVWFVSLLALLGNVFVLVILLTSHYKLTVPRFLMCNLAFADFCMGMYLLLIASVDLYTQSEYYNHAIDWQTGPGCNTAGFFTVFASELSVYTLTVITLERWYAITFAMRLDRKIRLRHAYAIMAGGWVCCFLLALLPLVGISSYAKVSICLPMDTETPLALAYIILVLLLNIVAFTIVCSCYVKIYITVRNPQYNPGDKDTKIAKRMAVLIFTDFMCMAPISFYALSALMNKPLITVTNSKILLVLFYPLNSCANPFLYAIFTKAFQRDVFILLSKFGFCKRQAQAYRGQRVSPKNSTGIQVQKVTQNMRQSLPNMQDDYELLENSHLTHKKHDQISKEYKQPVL

Row | fold decrease of in vitro TSH receptor binding affinity, compared to the rhTSH control [fold] | Binder
1 | 11.1 | B1

The binders below were run against T1, porcine TSH receptor (assay: competition ELISA; displacement of biotinylated rhTSH from immobilized porcine TSH receptor).
Experimental: (§1) Purified PEGylated conjugates were analyzed by in vitro porcine TSH receptor binding assay using the TSH Receptor Autoantibody 2nd Generation ELISA kit from RSR Limited (Kronus, Star, Id.). Instead of using the biotinylated human monoclonal autoantibody to the TSH receptor provided by the kit, we biotinylated Thyrogen® (rhTSH) to use for competitive inhibition of binding to TSH receptor. Binding of biotinylated rhTSH to immobilized porcine TSH receptor was inhibited by either rhTSH control or PEGylated rhTSH conjugates and IC₅₀ values were measured.
(§2) Thyrogen® was biotinylated with 1.7 to 1.8 biotins per protein using the ChromaLink™ Biotin Labeling Reagent according to the manufacturer's protocol (QED Bioscience Inc., San Diego, Calif.) and buffer exchanged into 50 mM sodium phosphate, 150 mM sodium chloride pH 7.0 with a Zeba™ Desalt Spin Column (Thermo Scientific, Rockford, Ill.). In vitro measurement of receptor binding was performed by competition of biotinylated Thyrogen® and PEG-rhTSH conjugate for binding to porcine TSH receptor immobilized onto 96-well plates supplied with the TSH Receptor Autoantibody 2nd Generation ELISA kit from RSR Limited (Kronus, Star, Id.). PEG-rhTSH conjugates were serially diluted 1:5 from 16 μM to 41 pM in assay buffer (100 mM HEPES pH 7.5, 20 mM EDTA, 1% BSA, 0.5% Triton X-100) and mixed 1:1 with biotinylated Thyrogen® diluted 1000-fold in assay buffer. The mixture was added to each receptor-coated well and incubated at 25° C. for 25 minutes. Unbound rhTSH was washed away and streptavidin peroxidase was added at 25° C. for 20 minutes according to the RSR Limited ELISA protocol to determine the amount of biotinylated Thyrogen® bound to the plate. The plate was then washed three times to remove excess unbound streptavidin peroxidase and then tetramethylbenzidine (TMB) was added to each well and incubated in the dark at 25° C. for 30 minutes. The reaction which was quenched with 0.5M sulfuric acid stop buffer and the absorbance of each well was read at 450 nm using a SpectraMax® 340pc plate reader (Molecular Devices, Sunnyvale, Calif.). The data was fit using a sigmoidal dose response equation with GraphPad Prism software to generate IC₅₀ values.

Row | IC50 [µM] | fold change (IC50 against rhTSH) [fold] | Binder
2 | 0.876 | 31.2 | B2
3 | 0.319 | 11.4 | B1
4 | 0.028 | 1 | B3
5 | 0.743 | 26.5 | B4
6 | 0.417 | 14.9 | B5
7 | 11.3 | 404 | B6
8 | 0.0416 | 1.5 | B7
9 | 0.281 | 10 | B8
10 | 4020 | 144000 | B9
11 | 0.248 | 8.9 | B10

Molecular target: T1, porcine TSH receptor
Experiment: as above
Remark: another data set of the same source
Experimental: as §1, §2

Row | IC50 [µM] | fold change (IC50 against rhTSH) [fold] | Binder
12 | 0.196 | 5.3 | B11
13 | 0.294 | 8 | B12
14 | 0.876 | 31.2 | B2
15 | 0.397 | 10.8 | B1
16 | 0.0367 | 1 | B3
17 | 0.133 | 3.6 | B13
18 | 0.101 | 2.7 | B14
19 | 0.138 | 3.8 | B15
20 | 0.0923 | 2.5 | B16
21 | 0.0781 | 2.1 | B17
22 | 0.0817 | 2.2 | B18
